Test results from paper PMC3769986 (Soft matter, 2011).
Read-outs that look alike come from different tables or passages of the source.

Columns and labels:
[1] = target: the molecule itself; assay: small angle neutron scattering
[2] = target: the molecule itself; assay: small angle neutron scattering; remark: listed apart in the source

B1: 17H6 (other)
chain: MGHHHHHHHHHHSSGHIHMAAAQEAAAAQAAAQAEAAQAAQAAAQEAAAAQAAAQAEAAQAAQAAAQEAAAAQAAAQAEAAQAAQAAAQEAAAAQAAAQAEAAQAAQAAAQEAAAAQAAAQAEAAQAAQAAAQEAAAAQAAAQAEAAQAAQAGGYGGMG
stoichiometry N [1]: 266 ± 3
stoichiometry N [2]: 171 ± 2
